The source of these data is PMC11968277, “Sulfoglycolysis sustains Eubacterium rectale in low-fiber diets” (The Journal of Biological Chemistry, 2025).

The target of series [1] is Bacillus megaterium SqvB (DUF4867 family member) (Bacillus megaterium). The series is described as follows: SEC-MALS; SEC-MALLS; 100 ul injected at 2.7 mg/mL; running buffer 50 mM Tris pH 7.5, 300 mM NaCl; room temperature (20 ± 2 °C). Background: Size exclusion chromatography separates by hydrodynamic size, large species first.
Substrate in the series “purified protein”: O=[N+]([O-])c1ccc(O[C@H]2O[C@H](CS(=O)(=O)O)[C@@H](O)[C@H](O)[C@H]2O)cc1
The series can be described thus: purified protein. In kind it is biochemical, Agathobacter rectalis. The following applies: PBS (50 mM sodium phosphate, 150 mM NaCl), pH 6.5, 30 °C.

Usually stoichiometry N stands for the number of molecules, sites or subunits per partner or assembly. Consider “Bacillus megaterium SqvB (DUF4867 family member) (natural protein)”, for which the stoichiometry N in series [1] turned out to be 2.

B1: SftG (E. rectale SftG SQase) (Agathobacter rectalis ATCC 33656) (protein)
chain: MQIKVNDNEFQLFVGEKRILEHSKERPMIYVGVGQEDVDMYRGNFKITDYVTERFPLKLTDVIQTADTVRLCFESYIIAKIKCDENLCTIDFEQKDDRINRFWFRVAADKEEKCYGCGEQMSYFNLRGRNFPIWTSEPGVGRDKTTYVTWRSDVENKAGGDYYNTNYPQPTFVSTNKYYLHVDSTAYADFDFRNDSFHELQIWEVPKQIRIECADTYLKLLERITTYFGRQPKLPDWVYNGLIIGVQGGNERSFGLLDKTLDRNIKVAGIWCQDWCGKRVTSFGKRLQWDWKYHKEMYPDLPKKIKEINAKGIKFLGYVNPYLVNDGELYKEGKEKGYFATKADGSDYLVDFGEFYCGVVDLTNPEAFEWFKDIIKEYTLGIGIDGWMADFGEYLPTDDICLYSGKSPMIEHNHWPVLWAKCNYEAVKESGKLGDVVYFMRAGGAGSQKYCTLLWAGDQSVDFTIHDGLASVICGALSAGMMGCGLTHSDIGGYTSLFDNTRTKELFLRWAEMAMFTPFMRTHEGNRPDTNFQYYDDEDTMERLARLVDVYTMLAPYTKTLVEENADSGHPVQRPLFMHYESDAKAYDIQYEYLFGRDMLIAPVYEQDKHEWDVYLPQDEWVHLWTGEEYHGGEITVSAELGYTPAFYRKNSEFADIFEEIREKYGVK
notes: codon-optimised gene in pET29a(+), C-terminal His6 tag, expressed in E. coli NEB T7 Express
The term Km denotes the substrate concentration at which the rate is half of its maximum. As usually defined, the kcat is the number of substrate molecules converted per active site and unit of time at saturation. In general, kcat/Km refers to the second-order rate constant that governs catalysis at low substrate concentration. Consider B1, for which, in the series “purified protein”, the Km stood at 478 ± 30 µM, the kcat was 78.8 ± 3.9 s⁻¹ and the kcat/Km was 165000 ± 18000 M⁻¹ s⁻¹.
